Results as given in article PMC9482650, “Quantitative fragmentomics allow affinity mapping of interactomes” (Nature Communications, 2022).

Legend:
Test in all cases: holdup assay
Parameters in all cases: key: below the threshold = too weak to quantify, mostly under pKd 3.1 to 4
[1] = target: T1, APBA1_1, Q02410
T1 sequence (Q02410 651-752, limits assumed, looked up): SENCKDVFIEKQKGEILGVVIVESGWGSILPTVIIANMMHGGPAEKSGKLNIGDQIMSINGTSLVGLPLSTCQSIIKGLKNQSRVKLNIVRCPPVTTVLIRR

[2] = target: T2, APBA2_1, Q99767
T2 sequence (Q99767 563-664, limits assumed, looked up): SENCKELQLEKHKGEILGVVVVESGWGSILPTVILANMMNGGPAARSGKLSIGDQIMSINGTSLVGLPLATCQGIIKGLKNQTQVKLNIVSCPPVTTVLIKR

[3] = target: T3, APBA2_2, Q99767
T3 sequence (Q99767 654-744, limits assumed, looked up): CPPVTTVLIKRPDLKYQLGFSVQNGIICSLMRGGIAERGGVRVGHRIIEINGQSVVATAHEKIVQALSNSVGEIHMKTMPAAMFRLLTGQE

[4] = target: T4, ARHGEF11, O15085
T4 sequence (O15085 42-136, limits assumed, looked up): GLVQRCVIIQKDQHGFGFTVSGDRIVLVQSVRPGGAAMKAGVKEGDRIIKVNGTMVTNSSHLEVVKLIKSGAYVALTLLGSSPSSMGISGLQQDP

[5] = target: CASK, O14936
[6] = target: T5, DFNB31_1, Q9P202
T5 sequence (Q9P202 135-233, limits assumed, looked up): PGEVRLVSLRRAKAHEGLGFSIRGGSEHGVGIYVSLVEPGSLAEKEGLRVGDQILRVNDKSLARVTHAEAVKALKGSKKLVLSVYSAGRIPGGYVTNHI

[7] = target: DLG1_2, Q12959
[8] = target: DLG1_3, Q12959
[9] = target: T6, DLG3_3, Q92796
T6 sequence (Q92796 374-475, limits assumed, looked up): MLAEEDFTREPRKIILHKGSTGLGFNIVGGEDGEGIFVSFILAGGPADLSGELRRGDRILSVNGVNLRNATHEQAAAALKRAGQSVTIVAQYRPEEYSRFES

[10] = target: DLG4_1, P78352
[11] = target: FRMPD4, Q14CM0
[12] = target: GOPC, Q9HD26
[13] = target: GORASP2, Q9H8Y8
[14] = target: GRID2IP_2, A4D2P6
[15] = target: T7, GRIP1_2, Q9Y3R0
T7 sequence (Q9Y3R0 145-248, limits assumed, looked up): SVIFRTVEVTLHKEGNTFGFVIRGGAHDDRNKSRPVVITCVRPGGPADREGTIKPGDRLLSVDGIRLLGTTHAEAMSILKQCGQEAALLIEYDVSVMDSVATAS

[16] = target: T8, GRIP1_5, Q9Y3R0
T8 sequence (Q9Y3R0 568-668, limits assumed, looked up): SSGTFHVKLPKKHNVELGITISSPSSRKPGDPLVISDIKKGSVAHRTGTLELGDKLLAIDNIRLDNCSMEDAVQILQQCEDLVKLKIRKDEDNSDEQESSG

[17] = target: IL16_1, Q14005
[18] = target: IL16_3, Q14005
[19] = target: LNX1_1, Q8TBB1
[20] = target: LNX1_2, Q8TBB1
[21] = target: T9, MPDZ_5, O75970
T9 sequence (O75970 695-796, limits assumed, looked up): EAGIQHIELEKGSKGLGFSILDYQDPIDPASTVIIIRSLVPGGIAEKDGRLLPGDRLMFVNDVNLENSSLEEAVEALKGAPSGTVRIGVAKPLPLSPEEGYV

[22] = target: T10, MPP2, Q14168
T10 sequence (Q14168 180-250, limits assumed, looked up): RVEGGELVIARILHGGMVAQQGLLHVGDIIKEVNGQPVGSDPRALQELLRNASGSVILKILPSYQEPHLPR

[23] = target: T11, NHERF3_3, Q5T2W1
T11 sequence (Q5T2W1 238-333, limits assumed, looked up): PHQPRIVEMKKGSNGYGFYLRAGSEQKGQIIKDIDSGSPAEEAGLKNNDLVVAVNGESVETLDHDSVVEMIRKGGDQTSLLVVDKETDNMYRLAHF

[24] = target: NHERF4_4, Q86UT5
[25] = target: T12, SNTB1, Q13884
T12 sequence (Q13884 107-205, limits assumed, looked up): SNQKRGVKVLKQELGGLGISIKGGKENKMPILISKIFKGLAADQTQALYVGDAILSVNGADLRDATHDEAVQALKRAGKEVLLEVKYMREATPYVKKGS

[26] = target: TJP1_3, Q07157
[27] = plain residues with an end cap or a label only (N-terminal biotin on a linker: (peg)3)
[28] = plain residues with an end cap or a label only (N-terminal biotin on a linker: ado-ado)

Sequence of LNX1_1, Q8TBB1 (Q8TBB1 261-371): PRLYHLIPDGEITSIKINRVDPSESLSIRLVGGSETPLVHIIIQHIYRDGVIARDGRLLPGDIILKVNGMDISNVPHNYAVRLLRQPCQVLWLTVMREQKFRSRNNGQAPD
Sequence of CASK, O14936 (O14936 487-570): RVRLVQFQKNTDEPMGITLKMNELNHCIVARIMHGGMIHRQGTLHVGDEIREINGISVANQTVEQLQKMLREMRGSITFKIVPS
Sequence of IL16_1, Q14005 (Q14005 210-306): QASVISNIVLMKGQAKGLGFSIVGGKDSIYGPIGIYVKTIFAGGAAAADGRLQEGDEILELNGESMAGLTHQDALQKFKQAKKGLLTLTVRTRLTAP
Sequence of DLG1_3, Q12959 (Q12959 457-571): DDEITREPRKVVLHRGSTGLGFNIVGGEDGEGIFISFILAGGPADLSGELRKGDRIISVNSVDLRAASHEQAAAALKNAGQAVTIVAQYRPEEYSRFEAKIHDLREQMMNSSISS
Sequence of NHERF4_4, Q86UT5 (Q86UT5 464-550): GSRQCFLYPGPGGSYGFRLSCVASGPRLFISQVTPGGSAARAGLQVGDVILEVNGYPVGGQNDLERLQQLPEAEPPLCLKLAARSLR
Sequence of LNX1_2, Q8TBB1 (Q8TBB1 371-470): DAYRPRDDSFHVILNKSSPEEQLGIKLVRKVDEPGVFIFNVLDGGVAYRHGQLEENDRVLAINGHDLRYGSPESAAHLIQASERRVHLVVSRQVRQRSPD
Sequence of DLG4_1, P78352 (P78352 62-152): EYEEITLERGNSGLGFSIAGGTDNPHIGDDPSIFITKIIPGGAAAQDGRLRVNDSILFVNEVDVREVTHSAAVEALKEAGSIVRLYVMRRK
Sequence of DLG1_2, Q12959 (Q12959 314-412): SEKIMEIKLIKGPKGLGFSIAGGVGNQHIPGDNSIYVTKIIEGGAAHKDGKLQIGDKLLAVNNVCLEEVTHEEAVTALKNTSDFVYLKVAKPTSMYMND
Sequence of FRMPD4, Q14CM0 (Q14CM0 67-160): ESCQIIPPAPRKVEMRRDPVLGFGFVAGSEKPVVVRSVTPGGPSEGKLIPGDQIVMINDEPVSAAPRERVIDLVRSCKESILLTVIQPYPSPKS
Sequence of TJP1_3, Q07157 (Q07157 416-512): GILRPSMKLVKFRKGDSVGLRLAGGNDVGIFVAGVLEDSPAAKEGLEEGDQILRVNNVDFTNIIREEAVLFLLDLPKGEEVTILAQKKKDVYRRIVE
Sequence of IL16_3, Q14005 (Q14005 1107-1207): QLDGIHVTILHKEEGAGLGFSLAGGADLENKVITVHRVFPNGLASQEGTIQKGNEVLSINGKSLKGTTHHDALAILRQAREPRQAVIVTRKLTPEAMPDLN
Sequence of GRID2IP_2, A4D2P6 (A4D2P6 272-370): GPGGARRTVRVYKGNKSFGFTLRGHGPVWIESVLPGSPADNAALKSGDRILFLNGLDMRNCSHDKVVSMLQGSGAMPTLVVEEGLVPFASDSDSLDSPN

YDEPTTTTSVPL [SARS-Cov2-3a, P0DTC3]
pKd [1, 27]: below the threshold | pKd [2, 27]: below the threshold | pKd [3, 27]: below the threshold | pKd [4, 27]: below the threshold | pKd [5, 27]: below the threshold | pKd [6, 27]: below the threshold | pKd [7, 27]: below the threshold | pKd [8, 27]: below the threshold | pKd [9, 27]: below the threshold | pKd [10, 27]: below the threshold | pKd [11, 27]: 3.97 | pKd [12, 27]: below the threshold | pKd [13, 27]: below the threshold | pKd [14, 27]: below the threshold | pKd [15, 27]: below the threshold | pKd [16, 27]: below the threshold | pKd [17, 27]: below the threshold | pKd [18, 27]: below the threshold | pKd [19, 27]: below the threshold | pKd [20, 27]: below the threshold | pKd [21, 27]: below the threshold | pKd [22, 27]: below the threshold | pKd [23, 27]: below the threshold | pKd [24, 27]: below the threshold | pKd [25, 27]: below the threshold | pKd [26, 27]: below the threshold

LTAQEQPVYI [APBA1, Q02410]
pKd [1, 28]: 3.65 | pKd [2, 28]: below the threshold | pKd [3, 28]: below the threshold | pKd [4, 28]: 4.21 | pKd [5, 28]: below the threshold | pKd [6, 28]: below the threshold | pKd [7, 28]: below the threshold | pKd [8, 28]: below the threshold | pKd [9, 28]: below the threshold | pKd [10, 28]: below the threshold | pKd [11, 28]: below the threshold | pKd [12, 28]: below the threshold | pKd [13, 28]: 4.18 | pKd [14, 28]: 3.81 | pKd [15, 28]: below the threshold | pKd [16, 28]: below the threshold | pKd [17, 28]: below the threshold | pKd [18, 28]: below the threshold | pKd [19, 28]: below the threshold | pKd [20, 28]: below the threshold | pKd [21, 28]: 3.52 | pKd [22, 28]: below the threshold | pKd [23, 28]: below the threshold | pKd [24, 28]: below the threshold | pKd [25, 28]: below the threshold | pKd [26, 28]: below the threshold

SRPTKGPTLL [PLEKHH2, Q8IVE3]
pKd [1, 28]: below the threshold | pKd [2, 28]: below the threshold | pKd [3, 28]: below the threshold | pKd [4, 28]: 3.85 | pKd [5, 28]: below the threshold | pKd [6, 28]: below the threshold | pKd [7, 28]: 3.82 | pKd [8, 28]: below the threshold | pKd [9, 28]: below the threshold | pKd [10, 28]: 3.91 | pKd [11, 28]: 3.88 | pKd [12, 28]: below the threshold | pKd [13, 28]: 3.6 | pKd [14, 28]: 4.48 | pKd [15, 28]: below the threshold | pKd [16, 28]: below the threshold | pKd [17, 28]: below the threshold | pKd [18, 28]: below the threshold | pKd [19, 28]: below the threshold | pKd [20, 28]: below the threshold | pKd [21, 28]: below the threshold | pKd [22, 28]: below the threshold | pKd [23, 28]: below the threshold | pKd [24, 28]: 3.89 | pKd [25, 28]: below the threshold | pKd [26, 28]: below the threshold
